Four sequences from the supplement of paper PMC5998384 can be followed below.

Data set [1] has as its system HeLa Kyoto. The data set is described as follows: solubility in G1/S (NP-40 vs SDS abundance) (log2 ratio); higher = more soluble. To be noted: cell cycle stage: G1/S.
Data set [2] relates to HeLa Kyoto. The data set is described as follows: melting temperature (median over replicates), in situ; higher = more thermally stable.
For data set [3], the system named is HeLa Kyoto. The data set is described as follows: solubility change mitosis vs G1/S (difference of NP-40 vs SDS log2 ratios) (log2 ratio difference); higher = more soluble in mitosis.
The subject of data set [4] is HeLa Kyoto. The data set is described as follows: thermal stability score vs G1/S (z-score of summed log2 fold changes over temperatures); higher = more thermally stable than in G1/S.
[5] abbreviates: cell cycle stage: early G1 (4.5 h after nocodazole release).
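Throughout, for melting temperature (median over replicates), in situ: HeLa Kyoto cells synchronized by double thymidine or nocodazole block, proteins quantified by TMT10plex mass spectrometry, three independent biological replicates.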
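Throughout, for solubility change mitosis vs G1/S (difference of NP-40 vs SDS log2 ratios): synchronized HeLa Kyoto cells (double thymidine block for G1/S, nocodazole release for mitosis), protein amounts in NP-40 versus SDS lysates quantified by mass spectrometry, three biological replicates.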
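Throughout, for solubility in G1/S (NP-40 vs SDS abundance): HeLa Kyoto cells arrested at G1/S by double thymidine block, proteins quantified by TMT10plex mass spectrometry in mild NP-40 versus SDS extracts, three biological replicates.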
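Throughout, for thermal stability score vs G1/S (z-score of summed log2 fold changes over temperatures): synchronized HeLa Kyoto cells, proteins quantified by TMT10plex mass spectrometry, three biological replicates, mitosis taken 0.5 h after nocodazole release, G1/S directly after double thymidine block.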

With “MALLVLGLVSCTFFLAVNGLYSSSDDVIELTPSNFNREVIQSDSLWLVEFYAPWCGHCQRLTPEWKKAATALKDVVKVGAVDADKHHSLGGQYGVQGFPTIKIFGSNKNRPEDYQGGRTGEAIVDAALSALRQLVKDRLGGRSGGYSSGKQGRSDSSSKKDVIELTDDSFDKNVLDSEDVWMVEFYAPWCGHCKNLEPEWAAAASEVKEQTKGKVKLAAVDATVNQVLASRYGIRGFPTIKIFQKGESPVDYDGGRTRSDIVSRALDLFSDNAPPPELLEIINEDIAKRTCEEHQLCVVAVLPHILDTGAAGRNSYLEVLLKLADKYKKKMWGWLWTEAGAQSELETALGIGGFGYPAMAAINARKMKFALLKGSFSEQGINEFLRELSFGRGSTAPVGGGAFPTIVEREPWDGRDGELPVEDDIDLSDVELDDLGKDEL [PDIA6]”, the “solubility in G1/S (log2)” value in data set [1] came out at 0.44. Further, the melting temperature in data set [2] (cell cycle stage: G1/S) was determined as 55.1 °C; in data set [2] (cell cycle stage: mitosis), 56.2 °C. In addition, in data set [3], the “solubility change mitosis (log2)” value is -0.1. The thermal stability score worked out at 4.84 in data set [4] (setting [5]) and 4.76 in data set [4] (cell cycle stage: mitosis).

For the sequence “MALNKNHSEGGGVIVNNTESILMSYDHVELTFNDMKNVPEAFKGTKKGTVYLTPYRVIFLSKGKDAMQSFMMPFYLMKDCEIKQPVFGANYIKGTVKAEAGGGWEGSASYKLTFTAGGAIEFGQRMLQVASQASRGEVPSGAYGYSYMPSGAYVYPPPVANGMYPCPPGYPYPPPPPEFYPGPPMMDGAMGYVQPPPPPYPGPMEPPVSGPDVPSTPAAEAKAAEAAASAYYNPGNPHNVYMPTSQPPPPPYYPPEDKKTQ [WBP2]”, the “solubility in G1/S (log2)” value in data set [1] was 0.283. Also, the melting temperature was 54.1 °C in data set [2] (cell cycle stage: G1/S) and 54.5 °C in data set [2] (cell cycle stage: mitosis). Moreover, the “solubility change mitosis (log2)” value in data set [3] is -0.0665. Moreover, the thermal stability score in data set [4] (setting [5]) is 0.182; in data set [4] (cell cycle stage: mitosis), -1.41.

On to “MALPIIVKWGGQEYSVTTLSEDDTVLDLKQFLKTLTGVLPERQKLLGLKVKGKPAENDVKLGALKLKPNTKIMMMGTREESLEDVLGPPPDNDDVVNDFDIEDEVVEVENREENLLKISRRVKEYKVEILNPPREGKKLLVLDVDYTLFDHRSCAETGVELMRPYLHEFLTSAYEDYDIVIWSATNMKWIEAKMKELGVSTNANYKITFMLDSAAMITVHTPRRGLIDVKPLGVIWGKFSEFYSKKNTIMFDDIGRNFLMNPQNGLKIRPFMKAHLNRDKDKELLKLTQYLKEIAKLDDFLDLNHKYWERYLSKKQGQ [UBLCP1]”, for which the “solubility in G1/S (log2)” value in data set [1] amounted to 0.159. For the same sequence, the results for the melting temperature in data set [2] (cell cycle stage: G1/S) and in data set [2] (cell cycle stage: mitosis) were 49.5 °C and 50 °C, respectively. Also, the “solubility change mitosis (log2)” value in data set [3] is -0.142. The thermal stability score in data set [4] (setting [5]) stood at 0.941; in data set [4] (cell cycle stage: mitosis), 2.39.

For the sequence “MALQGISVVELSGLAPGPFCAMVLADFGARVVRVDRPGSRYDVSRLGRGKRSLVLDLKQPRGAAVLRRLCKRSDVLLEPFRRGVMEKLQLGPEILQRENPRLIYARLSGFGQSGSFCRLAGHDINYLALSGVLSKIGRSGENPYAPLNLLADFAGGGLMCALGIIMALFDRTRTGKGQVIDANMVEGTAYLSSFLWKTQKLSLWEAPRGQNMLDGGAPFYTTYRTADGEFMAVGAIEPQFYELLIKGLGLKSDELPNQMSMDDWPEMKKKFADVFAEKTKAEWCQIFDGTDACVTPVLTFEEVVHHDHNKERGSFITSEEQDVSPRPAPLLLNTPAIPSFKRDPFIGEHTEEILEEFGFSREEIYQLNSDKIIESNKVKASL [AMACR]”, the “solubility in G1/S (log2)” value in data set [1] is 0.155. Besides, the melting temperature amounted to 52.1 °C in data set [2] (cell cycle stage: G1/S) and 52.5 °C in data set [2] (cell cycle stage: mitosis). Moreover, the “solubility change mitosis (log2)” value in data set [3] is -0.0545. The thermal stability score in data set [4] (setting [5]) worked out at 0.0452; in data set [4] (cell cycle stage: mitosis), 0.6.
